Source: PMC6520365, “Structural and functional characterization of the PDZ domain of the human phosphatase PTPN3 and its interaction with the human papillomavirus E6 oncoprotein” (Scientific Reports, 2019)

B1: HBVc PBM peptide (C-terminal sequence of the hepatitis B virus core protein) (peptide)
peptide: RRRRSQSRESQC
notes: also called HBV Core PBM; source: synthetic peptide (Fmoc solid phase, Proteogenix)
B2: PDZ domain of the human protein tyrosine phosphatase non-receptor type 3 (PTPN3-PDZ) (domain or fragment)
chain: GDSYLVLIRITPDEDGKFGFNLKGGVDQKMPLVVSRINPESPADTCIPKLNEGDQIVLINGRDISEHTHDQVVMFIKASRESHSRELALVIRRR
B3: HPV16E6 PBM peptide (C-terminal sequence of the human papillomavirus type 16 E6 protein) (peptide)
peptide: RSSRTRRETQL
notes: Only the last seven residues (TRRETQL) are seen in the crystal; also called PBM of HPV16 E6; source: synthetic peptide (Fmoc solid phase, Proteogenix)
B4: p38γ PBM peptide (C-terminal sequence of the MAP kinase p38γ) (peptide)
peptide: SWARVSKETPL
notes: also called MAPK12 PBM; source: synthetic peptide (Fmoc solid phase, Proteogenix)

Legend:
Settings in all cases: both partners purified
[1] = molecular target: T1, PDZ domain of the human protein tyrosine phosphatase non-receptor type 3 (PTPN3-PDZ) (human, UniProt P26045-1 504-913, Start 504 is printed. End 597 comes from the 6HKS entity and fits the printed 94 residues (89 non-Pro). GST removed by TEV; any residual tag residues left out.); assay: AUC; sedimentation velocity, PTPN3-PDZ at 70 μM with HBVc PBM peptide, 20 °C, 42000 rpm
[2] = molecular target: PTPN3-PDZ_(Next), PDZ domain of human PTPN3 extended at the N-terminus by 15 residues of its wild-type … (human, UniProt P26045-1 489-913, Start 489 is 504 minus the 15 residues printed. End 597 comes from the 6HKS entity (residues 6-114); its GAMGS tag remnant is left out.); assay: AUC; sedimentation velocity, PTPN3-PDZ_(Next) at 70 μM with PBM peptide, 20 °C, 42000 rpm
Chain of PTPN3-PDZ_(Next), PDZ domain of human PTPN3 extended at the N-terminus by 15 residues of its wild-type … (P26045 489-913): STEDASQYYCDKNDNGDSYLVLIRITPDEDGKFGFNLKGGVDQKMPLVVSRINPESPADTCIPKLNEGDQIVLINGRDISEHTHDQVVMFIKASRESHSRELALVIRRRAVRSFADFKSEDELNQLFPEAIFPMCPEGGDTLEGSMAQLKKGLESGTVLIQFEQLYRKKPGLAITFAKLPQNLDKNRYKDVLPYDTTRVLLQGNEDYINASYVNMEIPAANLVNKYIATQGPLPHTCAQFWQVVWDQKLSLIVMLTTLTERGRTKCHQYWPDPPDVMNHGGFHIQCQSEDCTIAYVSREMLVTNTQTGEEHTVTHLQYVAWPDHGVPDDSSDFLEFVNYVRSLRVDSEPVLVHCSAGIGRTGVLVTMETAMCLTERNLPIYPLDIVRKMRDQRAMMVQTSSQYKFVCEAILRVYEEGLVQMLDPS

[3] = molecular target: T1, PDZ domain of the human protein …; assay: NMR titration; unlabeled peptide added stepwise to 15N-labeled PTPN3-PDZ at 95 or 149 μM; 1H,15N HSQC chemical shift perturbations; 15 °C; 50 mM Tris/HCl pH 7.5, 150 mM NaCl, 0.5 mM TCEP; KD from 8 to 14 fitted curves
[4] = molecular target: HPV18E6 PBM peptide (C-terminal sequence of the human papillomavirus type 18 E6 protein) (human papillomavirus type 18); assay: as above

Binder	stoichiometry N [1]	stoichiometry N [2]	Kd [3] [µM]	Kd [4] [µM]
B1	1	1	29	–
B2	–	–	–	37
B3	–	1	53	–
B4	–	–	26	–
